Square brackets hold non-standard residues; d marks the D form. Ends that are not written are not given here. Peptide text beside a SMILES is read from it.
Columns and labels:
AMH-R2 = target: T1, AMH-R2 (Homo sapiens, UniProt Q16671); experiment: peptide microarray assay identifying AMH receptor binding peptides; conditions: microarray signal; for Average: average of Rep 1 and Rep 2; for Rep 1: replicate 1; for Rep 2: replicate 2
T1 construct: GST
T1 sequence (Q16671 18-573): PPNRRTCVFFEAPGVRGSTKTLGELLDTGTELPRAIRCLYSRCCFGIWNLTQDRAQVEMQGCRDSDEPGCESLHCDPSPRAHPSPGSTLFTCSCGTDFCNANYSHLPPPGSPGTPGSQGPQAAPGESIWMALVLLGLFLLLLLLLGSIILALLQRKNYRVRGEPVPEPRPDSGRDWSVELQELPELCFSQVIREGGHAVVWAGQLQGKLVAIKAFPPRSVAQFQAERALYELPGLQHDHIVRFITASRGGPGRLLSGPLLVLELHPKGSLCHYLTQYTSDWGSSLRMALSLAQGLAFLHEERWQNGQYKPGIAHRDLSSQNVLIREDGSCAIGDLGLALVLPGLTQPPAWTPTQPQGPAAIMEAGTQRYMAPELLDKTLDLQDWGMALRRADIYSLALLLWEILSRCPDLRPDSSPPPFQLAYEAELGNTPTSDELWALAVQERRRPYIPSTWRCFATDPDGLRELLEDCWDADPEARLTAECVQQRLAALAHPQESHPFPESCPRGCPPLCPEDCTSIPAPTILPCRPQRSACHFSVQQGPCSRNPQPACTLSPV
Excerpt: In view of the several actions of AMH, and because of the need for AMH receptor agonists and/or antagonist that can modify the activity of one or more of the AMH receptors, provided herein are AMH receptor binding peptides that modulate the activity of the AMH receptor, as described herein. Briefly, it was hypothesized that peptides that bind AMH receptors could be generated based on the amino acid sequence of the AMH biding site of the AMH-R2 receptor. More particularly, based on the amino acid sequence of the AMH-R2 that is responsible for binding AMH, as well as the amino acid sequences of AMH-R2 that are near the AMH binding site, a peptide microarray was used to identify candidate AMH receptor binding peptides that can activate AMH-R2 and thus produce similar effects to native AMH.
To identify candidate AMH receptor binding peptides described herein, a custom peptide library composed of replicate copies of a 124,000 17 mer peptide microarray was synthesized (Arizona State University, Tempe, AZ) using the method described in Legutki, J. B., et al., Scalable high-density peptide arrays for comprehensive health monitoring. Nat Commun., volume 5, 4785 (2014). The slide was assembled into an Arrayit 4×24 Hybridization Cassette and each peptide microarray was blocked with 150 uL of 30% human sera in 1×PBST for 1 hour at room temperature with shaking After blocking, the slide was washed 3× with 1×PBST using a Biotek plate washer prior to addition of protein targets. Each protein sample was diluted in 30% human sera in 1×PBST and 150 uL of each sample was dispensed into the appropriate wells in the cassette and incubated for 1 hour at 37 C with rotation at 300 rpm on a ThermoMix™ 500 heater/shaker.
After incubation, the cassette was dismantled, the slide washed 3 times in 1×PBST, rinsed three times with distilled, deionized water (ddH2O), and dried in a centrifuge for 2 minutes at 800 rpm. Secondary antibody (anti-GST, GE Healthcare™) was prepared at 10 nM in 30% human sera in 1×PBST and dispensed onto the slide. The slide was incubated for 1 hour at 37 C with rotation at 300 rpm as before. The slide was then washed 3 times in 1×PBST, rinsed 3 times with ddH2O, and dried in a centrifuge for 2 minutes at 800 rpm. Detection antibody, 10 nM Alexa Flour 647 donkey anti-goat IgG (H+L) (ThermoFisher Scientific™), was prepared in 0.75% casein in 1×PBST and dispensed onto the slide. The slide was covered and incubated for 1 hour at 37 C with rotation as before. The slide was washed 3 times in 1×PBST, rinsed 3 times with ddH2O, and dried in a centrifuge for 2 minutes at 800 rpm. The slide was scanned on an Innopsys™ Inoscan 910AL scanner and the resulting TIFF files were analyzed using the Genepix™ Pro 6.0 software. Data files were exported and analyzed using Microsoft Excel™ and JMP™ software.

granulosa cells (GCs) = experiment: Cell Counting Kit-8 (CCK-8) proliferation and cytotoxicity assay; assay type: cell-based, human
Method: GCs were isolated at the time of oocyte retrieval from three IVF/ICSI patients with tubal factor infertility as previously reported. Follicular aspirates were centrifuged at 900×g at room temperature. Blood contaminants were removed from GCs by Histopaque™ 1077 (Sigma-Aldrich™, St. Louis, MO, USA) gradient centrifugation at 800×g for 20 min at room temperature. The GC pellet was resuspended in a 20-ml volume of medium [Dulbecco's modified Eagle's medium/Ham's Nutrient Mixture F-12 (Gibco, Thermo Fisher Scientific, Inc., Waltham, MA, USA) with 10% fetal bovine serum (make) and washed by a further 10-min centrifugation at 500×g. The GC pellet was then resuspended in 1 ml GC preparation medium containing 0.02% (w/v) EDTA and gentle repeated pipetting was performed to break up any cellular clumps. Following further washing, the cell stock was resuspended in the GC culture medium. The cells were seeded in nine-well cell culture plates at a density of 100,000 cells/well in medium and incubated for 24 hours with PBS (control), the NegAMHR2BP (SEQ ID NO: 4), or AMHR2BP (SEQ ID NO: 1).
For determination of cytotoxicity of the novel AMHR2BP (SEQ ID NO: 1), a Cell Counting Kit-8 (CCK-8) proliferation and cytotoxicity assay was used. CCK-8 is a as a sensitive colorimetric assay where Dojindo's highly water-soluble tetrazolium salt is reduced by dehydrogenase activities in cells. Living cells reduce the salt, producing a yellow-color formazan dye, which is soluble in the culture media. The amount of dye, generated by the activities of dehydrogenases in GCs, is directly proportional to the number of living cells. CCK-8 detection sensitivity is very high. We tested the following: (a) AMHR2BP (SEQ ID NO: 1) concentrations: 20 μg/ml, 50 μg/ml, 80 μg/ml, in addition to (b) NegAMHR2BP (SEQ ID NO: 4) 80 μg/ml, and (c) untreated cells (control).

Average (AMH-R2)	Rep 1 (AMH-R2)	Rep 2 (AMH-R2)	Molecule	GCs considered lifeless (granulosa cells (GCs); 20 μg/ml)	GCs that ceased function and were considered lifeless (granulosa cells (GCs); 80 μg/ml)	GC toxicity (granulosa cells (GCs); 80 μg/ml)
64591	63931	65250	rGrSQAYNErSGValSG ([dR]G[dR]SQAYNE[dR]SGV[dA][dL]SG) [SEQ ID NO: 10]	–	–	–
65335	65158	65511	wHGwSGANlFPYrSGVS ([dW]HG[dW]SGAN[dL]FPY[dR]SGVS) [SEQ ID NO: 8]	–	–	–
61835	65284	58385	FNGPSArNFYrHDVaVS (FNGPSA[dR]NFY[dR]HDV[dA]VS) [SEQ ID NO: 14]	–	–	–
63774	63996	63551	rGSYSNlFANSGErVGV ([dR]GSYSN[dL]FANSGE[dR]VGV) [SEQ ID NO: 13]	–	–	–
61198	60241	62155	EGlQSSAYNNYwrklVa (EG[dL]QSSAYNNY[dW][dR][dK][dL]V[dA]) [SEQ ID NO: 17]	–	–	–
65425	65521	65329	kGGYSNAYkHNPrVlGS ([dK]GGYSNAY[dK]HNP[dR]V[dL]GS) [SEQ ID NO: 7]	–	–	–
59177	60848	57506	GlYwSAYNPwrHValaS (G[dL]Y[dW]SAYNP[dW][dR]HV[dA][dL][dA]S) [SEQ ID NO: 18]	–	–	–
65453	65431	65475	DGlGSVlArkNrrDaVl (DG[dL]GSV[dL]A[dR][dK]N[dR][dR]D[dA]V[dL]) [SEQ ID NO: 5]	–	–	–
65427	65462	65391	VGPSVAYNYrVSGValG (VGPSVAYNY[dR]VSGV[dA][dL]G) [SEQ ID NO: 6]	–	–	–

More lines, now with the values behind:

Molecule	Average (AMH-R2)	Rep 1 (AMH-R2)	Rep 2 (AMH-R2)	GCs considered lifeless (granulosa cells (GCs); 20 μg/ml)	GCs that ceased function and were considered lifeless (granulosa cells (GCs); 80 μg/ml)	GC toxicity (granulosa cells (GCs); 80 μg/ml)
GSwSGAHNFrkSGVlSG (GS[dW]SGAHNF[dR][dK]SGV[dL]SG) [SEQ ID NO: 11]	64458	65128	63787	–	–	–
GlQwSFANGQwrGalSG (G[dL]Q[dW]SFANGQ[dW][dR]G[dA][dL]SG) [SEQ ID NO: 12]	63783	64623	62943	–	–	–
NGrSQAHNlrkaGValS (NG[dR]SQAHN[dL][dR][dK][dA]GV[dA][dL]S) [SEQ ID NO: 15]	61488	62940	60035	–	–	–
YwGwSHAkaNQFPNrla (Y[dW]G[dW]SHA[dK][dA]NQFPN[dR][dL][dA]) [SEQ ID NO: 3]	65484	65502	65465	–	–	–
YGFPSArVNrYwNrHDa (YGFPSA[dR]VN[dR]Y[dW]N[dR]HD[dA]) [SEQ ID NO: 16]	61418	60363	62472	–	–	–
CC(C)C[C@@H](NC(=O)[C@@H](C)NC(=O)[C@@H](NC(=O)CNC(=O)[C@H](CO)NC(=O)[C@@H](NC(=O)[C@@H](CCCNC(=N)N)NC(=O)[C@H](Cc1ccccc1)NC(=O)[C@H](CCC(N)=O)NC(=O)[C@H](CC(N)=O)NC(=O)[C@H](Cc1ccc(O)cc1)NC(=O)[C@H](C)NC(=O)[C@H](CC(N)=O)NC(=O)[C@H](CO)NC(=O)CNC(=O)[C@@H](N)C(C)C)C(C)C)C(C)C)C(=O)N[C@@H](CO)C(=O)O [SEQ ID NO: 1, VGSNAYNQFrVSGValS] (H-VGSNAYNQF[dR]VSGV[dA][dL]S-OH)	–	–	–	23%	74%	–
kGSNArkNrrDaSGVal ([dK]GSNA[dR][dK]N[dR][dR]D[dA]SGV[dA][dL]) [SEQ ID NO: 20]	47876	52284	43467	–	–	–
GGrSVSANlQrErkVaG (GG[dR]SVSAN[dL]Q[dR]E[dR][dK]V[dA]G) [SEQ ID NO: 19]	56883	55679	58087	–	–	–
VGwSFAPNGYrlSGVlG (VG[dW]SFAPNGY[dR][dL]SGV[dL]G) [SEQ ID NO: 9]	65165	65176	65153	–	–	–
CC(C)C[C@@H](NC(=O)[C@@H](C)NC(=O)[C@@H](CCCNC(=N)N)NC(=O)[C@H](CCC(N)=O)NC(=O)[C@H](CC(N)=O)NC(=O)[C@@H](C)NC(=O)[C@H](CC(N)=O)NC(=O)[C@H](C)NC(=O)[C@H](Cc1ccccc1)NC(=O)[C@H](Cc1c[nH]cn1)NC(=O)[C@@H](CCCCN)NC(=O)[C@H](CC(N)=O)NC(=O)[C@H](CO)NC(=O)[C@@H](C)NC(=O)CNC(=O)[C@@H](Cc1c[nH]c2ccccc12)NC(=O)[C@H](N)CCCNC(=N)N)C(=O)O [SEQ ID NO: 4, rwGaSNkHFANaNQral] (H-[dR][dW]G[dA]SN[dK]HFAN[dA]NQ[dR][dA][dL]-OH; N-terminus and C-terminus assumed)	–	–	–	–	–	low GC toxicity

— US12662542B2, “Agnostic anti-mullerian hormone receptor binding peptides” (OVARES D LLC, priority 2019, dated 2026)
